{"source": "patent US12760268", "about": "“Compositions and methods related to transferrin receptor-binding aptamers” (University of Washington)", "key": {"[1]": {"target": "T1, Transferrin receptor 1 (TfR1, CD71) (Homo sapiens, UniProt P02786 SEQ:89-760)", "T1 sequence (P02786 89-760)": "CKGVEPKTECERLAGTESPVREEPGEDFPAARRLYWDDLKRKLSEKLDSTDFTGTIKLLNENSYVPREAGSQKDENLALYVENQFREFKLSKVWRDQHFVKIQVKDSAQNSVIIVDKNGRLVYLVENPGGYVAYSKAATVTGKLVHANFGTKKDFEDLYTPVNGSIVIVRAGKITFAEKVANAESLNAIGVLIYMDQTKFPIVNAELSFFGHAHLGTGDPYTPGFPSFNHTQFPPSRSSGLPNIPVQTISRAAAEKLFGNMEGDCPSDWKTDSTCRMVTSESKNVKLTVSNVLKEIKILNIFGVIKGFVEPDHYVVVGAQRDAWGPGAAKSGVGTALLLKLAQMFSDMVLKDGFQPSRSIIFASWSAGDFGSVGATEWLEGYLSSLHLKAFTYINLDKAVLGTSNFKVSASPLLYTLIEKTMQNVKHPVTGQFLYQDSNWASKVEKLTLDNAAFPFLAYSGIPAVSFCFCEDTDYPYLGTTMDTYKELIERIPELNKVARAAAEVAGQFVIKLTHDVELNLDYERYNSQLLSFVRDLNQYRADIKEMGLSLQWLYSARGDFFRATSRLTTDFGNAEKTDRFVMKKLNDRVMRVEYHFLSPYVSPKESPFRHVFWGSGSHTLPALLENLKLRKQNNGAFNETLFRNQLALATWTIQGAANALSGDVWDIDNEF", "experiment": "BLI; 25 C, 5.5 mM Mg, 1:1 fit; tRNA and salmon sperm DNA present", "settings": "tags: biotinylated, ACROBiosystems TfR-H82E5, immobilized on streptavidin biosensor; chain copies: 2; label: 5'-FAM (with added 5' T), 5'-Cy5 or 5'-biotin; multi-hairpin on stem; G-quadruplex predicted"}, "[2]": {"target": "T2, Transferrin receptor 1 (TfR1, CD71), endogenous on cells (Homo sapiens, UniProt P02786 SEQ:89-760)", "T2 sequence (P02786 89-760)": "as above", "experiment": "flow; Jurkat cells, apparent Kd, 4 C; TfR1-independent component present", "settings": "chain copies: 2 (stated homodimer); label: 5'-FAM (with added 5' T), 5'-Cy5 or 5'-biotin; multi-hairpin on stem; G-quadruplex predicted"}, "[3]": {"target": "T3, Cellular nucleic acid-binding protein (CNBP, ZNF9) (Homo sapiens, UniProt P62633 P62633:1-177)", "T3 sequence (P62633 whole entry, one chain of several)": "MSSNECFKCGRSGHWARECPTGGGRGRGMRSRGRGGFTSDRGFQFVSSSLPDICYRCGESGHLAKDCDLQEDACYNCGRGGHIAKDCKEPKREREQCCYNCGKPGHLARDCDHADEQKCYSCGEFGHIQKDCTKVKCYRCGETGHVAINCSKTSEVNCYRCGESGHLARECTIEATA", "experiment": "BLI; 2:1 heterogeneous ligand fit, first Kd; off-target", "settings": "tags: His-tag, Novus Biologicals NBP2-22742, immobilized on Ni-NTA biosensor; label: 5'-FAM (with added 5' T), 5'-Cy5 or 5'-biotin; multi-hairpin on stem; G-quadruplex predicted"}, "[4]": {"target": "T2, Transferrin receptor 1 (TfR1, CD71), …", "experiment": "flow; H9 cells, apparent Kd (+/-13.0), 4 C", "settings": "chain copies: 2 (stated homodimer); label: 5'-FAM (with added 5' T), 5'-Cy5 or 5'-biotin; multi-hairpin on stem; G-quadruplex predicted"}, "[5]": {"target": "T3, Cellular nucleic acid-binding protein …", "experiment": "BLI; 2:1 heterogeneous ligand fit, second Kd; off-target", "settings": "tags: His-tag, Novus Biologicals NBP2-22742, immobilized on Ni-NTA biosensor; label: 5'-FAM (with added 5' T), 5'-Cy5 or 5'-biotin; multi-hairpin on stem; G-quadruplex predicted"}, "[6]": {"target": "Transferrin receptor 1 (mTfR1) (Mus musculus, UniProt Q62351 SEQ:89-763)", "sequence (Q62351 89-763)": "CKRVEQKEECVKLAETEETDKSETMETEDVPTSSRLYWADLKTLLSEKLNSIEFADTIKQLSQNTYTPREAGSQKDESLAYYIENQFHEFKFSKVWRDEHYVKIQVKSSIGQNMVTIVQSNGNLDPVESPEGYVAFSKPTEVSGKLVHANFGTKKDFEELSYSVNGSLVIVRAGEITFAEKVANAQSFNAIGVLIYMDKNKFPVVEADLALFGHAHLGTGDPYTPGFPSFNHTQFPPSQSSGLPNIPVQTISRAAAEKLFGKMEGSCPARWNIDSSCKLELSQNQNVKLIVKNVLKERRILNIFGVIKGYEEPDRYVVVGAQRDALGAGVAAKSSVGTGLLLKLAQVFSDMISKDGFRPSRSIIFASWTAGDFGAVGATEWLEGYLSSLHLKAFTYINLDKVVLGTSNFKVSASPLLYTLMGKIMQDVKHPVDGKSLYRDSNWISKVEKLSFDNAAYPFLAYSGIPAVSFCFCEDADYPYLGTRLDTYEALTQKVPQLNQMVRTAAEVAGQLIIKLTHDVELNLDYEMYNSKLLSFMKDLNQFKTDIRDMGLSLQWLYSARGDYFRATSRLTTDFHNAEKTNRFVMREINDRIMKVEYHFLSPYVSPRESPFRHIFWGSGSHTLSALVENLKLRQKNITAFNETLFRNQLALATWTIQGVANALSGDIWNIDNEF", "experiment": "BLI; 200 nM mTfR1 over immobilized biotinylated aptamer", "settings": "tags: His-tag, Sino Biological 50741-M07H; chain copies: 2; label: 5'-FAM (with added 5' T), 5'-Cy5 or 5'-biotin; multi-hairpin on stem; G-quadruplex predicted"}, "[7]": {"target": "T3, Cellular nucleic acid-binding protein …", "experiment": "BLI", "settings": "tags: His-tag, Novus Biologicals NBP2-22742, immobilized on Ni-NTA biosensor"}, "[8]": {"target": "T1, Transferrin receptor 1 (TfR1, CD71)", "experiment": "BLI; 25 C, 5.5 mM Mg, 1:1 fit", "settings": "tags: biotinylated, ACROBiosystems TfR-H82E5, immobilized on streptavidin biosensor, chain copies: 2"}, "[9]": {"target": "T2, Transferrin receptor 1 (TfR1, CD71), …", "experiment": "flow; H9 cells, apparent Kd (+/-0.2), 4 C", "settings": "chain copies: 2 (stated homodimer); label: 5'-FAM, 5'-Cy5 or 5'-biotin; hairpin"}, "[10]": {"target": "T2, Transferrin receptor 1 (TfR1, CD71), …", "experiment": "flow; Jurkat cells, apparent Kd, 4 C", "settings": "chain copies: 2 (stated homodimer)"}, "[11]": {"target": "T2, Transferrin receptor 1 (TfR1, CD71), …", "experiment": "flow; activated CD4+ T cells, apparent Kd, 4 C", "settings": "chain copies: 2 (stated homodimer); label: biotin; 3' 8-nt toehold overhang, redesigned stem"}, "[12]": {"target": "T2, Transferrin receptor 1 (TfR1, CD71), …", "experiment": "flow; activated CD8+ T cells, apparent Kd, 4 C", "settings": "chain copies: 2 (stated homodimer); label: biotin; 3' 8-nt toehold overhang, redesigned stem"}, "[13]": {"target": "T1, Transferrin receptor 1 (TfR1, CD71)", "experiment": "BLI; negative control", "settings": "tags: biotinylated, ACROBiosystems TfR-H82E5, immobilized on streptavidin biosensor; chain copies: 2; label: 5'-FAM, 5'-Cy5 or 5'-biotin"}, "[14]": {"target": "T1, Transferrin receptor 1 (TfR1, CD71)", "experiment": "BLI; no appreciable binding, single concentration", "settings": "tags: biotinylated, ACROBiosystems TfR-H82E5, immobilized on streptavidin biosensor; chain copies: 2; label: 5'-FAM"}, "[15]": {"target": "T2, Transferrin receptor 1 (TfR1, CD71), …", "experiment": "flow; H9 cells, apparent Kd, 4 C", "settings": "chain copies: 2 (stated homodimer); label: 5'-FAM or 5'-Cy5; multi-hairpin with extended stem"}, "[16]": {"settings": "label: 5'-FAM, 5'-Cy5 or 5'-biotin, hairpin"}}}
{"binder": "tJBA8.1 (ssDNA) DNA: GCAGCAGCGTAAAGGGGGTGTTTGTGCGGTGTGGAGTGCGCGTGCTGCTGC", "values": [{"measurement": "Kd", "setting": "[1]", "result": 25.1, "unit": "nM"}, {"measurement": "Kd", "setting": "[2]", "result": 10.9, "unit": "nM"}, {"measurement": "Kd", "setting": "[3]", "result": 1.85, "unit": "nM"}, {"measurement": "Kd", "setting": "[4]", "result": 25.6, "unit": "nM"}, {"measurement": "Kd", "setting": "[5]", "result": 8.07, "unit": "nM"}, {"measurement": "binding result", "setting": "[6]", "result": "no binding"}]}
{"binder": "XQ-2d (ssDNA) DNA: ACTCATAGGGTTAGGGGCTGCTGGCCAGATACTCAGATGGTAGGGTTACTATGAGC", "values": [{"measurement": "binding result", "setting": "[7]; [16]", "result": "no binding"}, {"measurement": "Kd", "setting": "[8]; [16]", "result": 14.4, "unit": "nM"}, {"measurement": "Kd", "setting": "[9]", "result": 2.2, "unit": "nM"}]}
{"binder": "rvCD71apt (JBA1.2) (ssDNA) DNA: GGAGTCACACGCATTAGCGTAAAGGGGGTGTTTGTGCGGTGTGGAGTGCGCGTGCTAATGCTGGAGTGTTTCCCAGGACCC", "values": [{"measurement": "Kd", "setting": "[10]; label: biotin, 3' 8-nt toehold overhang, redesigned stem", "result": 35.2, "unit": "nM"}, {"measurement": "Kd", "setting": "[11]", "result": 28.5, "unit": "nM"}, {"measurement": "Kd", "setting": "[12]", "result": 35, "unit": "nM"}]}
{"binder": "RANL (ssDNA) DNA: ATCCAGAGTGACGCAGCAAATTCCAAACTCGAGTAAGCGTAGAGCCTCTCATCGCCTCAATAATGGACACGGTGGCTTAGT", "values": [{"measurement": "binding result", "setting": "[13]", "result": "no binding"}, {"measurement": "binding result", "setting": "[7]; label: 5'-FAM, 5'-Cy5 or 5'-biotin", "result": "no binding"}]}
{"binder": "JBA8.3 (ssDNA) DNA: ATCCAGAGTGACGCAGCAGGGGCCGCGGATGCAAACGCCCGATAGGGGGACGGCACTGGAGCTTGGACACGGTGGCTTAGT", "values": [{"measurement": "binding result", "setting": "[14]", "result": "no binding"}]}
{"binder": "JBA8.4 (ssDNA) DNA: ATCCAGAGTGACGCAGCAACCCAAACCACCAGCCGGGGATGCAAACACCGCACAGGGAACGGCTGGACACGGTGGCTTAGT", "values": [{"measurement": "binding result", "setting": "[14]", "result": "no binding"}]}
{"binder": "JBA8.7 (ssDNA) DNA: ATCCAGAGTGACGCAGCAACCACAGATGCAAATGCGCGAGAGCGGGACGGTTTGCTAGGCTCATGGACACGGTGGCTTAGT", "values": [{"measurement": "binding result", "setting": "[14]", "result": "no binding"}]}
{"binder": "JBA8.11 (ssDNA) DNA: ATCCAGAGTGACGCAGCAGCCGGTCGCAGATGCAAATGCCCGACAGGGGGACGCGGGCTGCCATGGACACGGTGGCTTAGT", "values": [{"measurement": "binding result", "setting": "[14]", "result": "no binding"}]}
{"binder": "JBA8.26 (ssDNA) DNA: ATCCAGAGTGACGCAGCAGCGTAAAGGGGGTGTTTGTGCGGTGTGGAGTGCGCGCGCTGCTGCTGGACACGGTGGCTTAGT", "values": [{"measurement": "Kd", "setting": "[8]; label: 5'-FAM or 5'-Cy5, multi-hairpin with extended stem", "result": 6.87, "unit": "nM"}, {"measurement": "Kd", "setting": "[15]", "result": 3.3, "unit": "nM"}]}
{"binder": "JBA8.15 (ssDNA) DNA: ATCCAGAGTGACGCAGCACTCTCGGGGGGTAGGTGGGAAGGGGGCCGCCCCCTGGGTTAGGCTTGGACACGGTGGCTTAGT", "values": [{"measurement": "binding result", "setting": "[14]", "result": "no binding"}]}
{"binder": "tJBA8.1 GGAGG (ssDNA) DNA: GCAGCAGCGTAAAGGAGGTGTTTGTGCGGTGTGGAGTGCGCGTGCTGCTGC", "values": [{"measurement": "binding result", "setting": "[7]", "result": "no binding"}]}
{"binder": "tJBA8.1 GGGAG (ssDNA) DNA: GCAGCAGCGTAAAGGGAGTGTTTGTGCGGTGTGGAGTGCGCGTGCTGCTGC", "values": [{"measurement": "binding result", "setting": "[7]", "result": "no binding"}]}
{"binder": "tJBA8.1 GGGGC (ssDNA) DNA: GCAGCAGCGTAAAGGGGCTGTTTGTGCGGTGTGGAGTGCGCGTGCTGCTGC", "values": [{"measurement": "binding result", "setting": "[7]", "result": "no binding"}]}
{"binder": "JBA8.1 (ssDNA) DNA: ATCCAGAGTGACGCAGCAGCGTAAAGGGGGTGTTTGTGCGGTGTGGAGTGCGCGTGCTGCTGCTGGACACGGTGGCTTAGT", "values": [{"measurement": "Kd", "setting": "[10]; label: 5'-FAM or 5'-Cy5, multi-hairpin on stem, G-quadruplex predicted", "result": 5.5, "unit": "nM"}]}
